Test [1] relates to AdrR spheroids. Nature of the test: spheroid growth assay. The settings on record: 8 uM. Type of test: cell-based, human. As to the method: (§1) Subconfluent cells are trypsinized, counted, and resuspended in filtered medium. The cell concentration is adjusted to 100,000 cells/ml, and one 20 ul drop (containing 2000 cells) is added to each ring on the underside of the lid of a 96-well plate. The lids with these hanging droplets are then placed back on the original 96-well plate, which contained 100 ul of PBS in each well to maintain moisture. Four days after initial plating, the hanging droplets containing the spheroids are replated into new 96-well plates. This replating involves transferring the lid containing the hanging droplets to a fresh 1% agarose/RPMI-coated 96-well plate that contains 150 ul of medium per well. The plate and lid are then centrifuged together at 500 rpm for 1 minute to transfer the spheroid-containing drops from the lids to the wells. Plates are then further incubated at 37° C. in a humidified CO2 incubator. Spheroids are photographed in an inverted phase contrast microscope. A micrometer scale is also photographed at the same magnification to determine spheroid size. The diameter of the spheroids is determined using METAMORPH image analysis software (MDS Analytical Technologies).
(§2) The diameters of the spheroids are measured using light microscopy (10× objective) at day 1 and day 13.

Test [2] relates to DU145 spheroids. Nature of the test: spheroid growth assay. Type of test: cell-based, human. The following applies: DU145, 8 uM, 3.4 nM HRG. The method, then: as §1, §2
Test [3] has as its target BSA (Bos taurus, UniProt P02769). Nature of the test: binding specificity ELISA. The arrangement: species or system bovine. The following applies: IgG2 isotype of Ab #6. The method, then: 96-well NUNC MAXISORB plates are coated by overnight incubation at room temperature with 50 μl/well of 5 μg/ml of individual proteins. The proteins are recombinant human EGFR ectodomain, BSA, recombinant human ErbB3 ectodomain and TGF-α. The next morning, plates are washed 3 times with […] of PBST (0.05% Tween-20) in the BIOTEK plate washer. The wells are blocked for 1 hr at room temperature with 2% BSA in PBS and washed again as before. […] All samples are run in duplicate and incubated for 2 hrs at 4° C. on a plate shaker. The plates are washed again as before. 50 μl of human IgG-Fc detection antibody (HRP conjugated, Bethyl Laboratories, Inc; 1:75000 dilution in 2% BSA, PBST) is added and the plates are incubated for 1 hr at room temperature. The plates are washed again as before. 50 μL of SUPERSIGNAL ELISA Pico substrate is added and the plate is read on the FUSION plate reader (Packard/Perkin Elmer). The data is analyzed using the EXCEL program. Duplicate samples are averaged and the error bars represent the standard deviation between the two replicates.
Background: An ELISA detects its analyte on a solid surface through an enzyme-linked reagent.

Test [4] concerns ErbB3 phosphorylation in OVCAR 5. Nature of the test: ErbB3 phosphorylation ELISA in ovarian tumor cell line. The following applies: IgG2 isotype. Type of test: cell-based, human. As to the method: (§3) All ELISA reagents for the total and phospho-ErbB3 ELISAs are purchased from R&D Systems as DUOSET kits. 96-well NUNC MAXISORB plates are coated with 50 uL of an antibody and incubated overnight at room temperature. Next morning, plates are washed 3 times with […] in the BIOTEK plate washer with Dulbecco's phosphate buffered saline without calcium or magnesium (PBS) with added Tween detergent (PBST) (0.05% Tween-20). […] The plates are washed 3 times with […] in the BIOTEK plate washer with PBST (0.05% Tween-20). 50 μL of cell lysates and standards diluted in 50% Lysis buffer and 1% BSA are used in duplicates for further processing. Samples are incubated for 2 hrs at 4° C. on a plate shaker and washed as before. About 50 μl of a detection antibody diluted in 2% BSA, PBST is added and incubated for about 1 hr at room temperature. For phosphor-ErbB3, the detection antibody is directly conjugated to horseradish peroxidase (HRP) and incubated for 2 hrs at room temperature. The plate is washed as before. About 50 μl of Streptavidin-HRP is added and incubate for 30 min at room temperature (except for pErbB3). The plates are washed as before. About 50 μL of SUPERSIGNAL ELISA Pico (Thermo Scientific) substrate is added and the plate is read using a FUSION plate reader. The data are analyzed using EXCEL. […]

In test [5] the test system is ErbB3 phosphorylation in OVCAR 8. Described as above. Type of test: cell-based, human. The settings on record: IgG2 isotype. As to the method: as §3

Chain of BSA (P02769 25-607): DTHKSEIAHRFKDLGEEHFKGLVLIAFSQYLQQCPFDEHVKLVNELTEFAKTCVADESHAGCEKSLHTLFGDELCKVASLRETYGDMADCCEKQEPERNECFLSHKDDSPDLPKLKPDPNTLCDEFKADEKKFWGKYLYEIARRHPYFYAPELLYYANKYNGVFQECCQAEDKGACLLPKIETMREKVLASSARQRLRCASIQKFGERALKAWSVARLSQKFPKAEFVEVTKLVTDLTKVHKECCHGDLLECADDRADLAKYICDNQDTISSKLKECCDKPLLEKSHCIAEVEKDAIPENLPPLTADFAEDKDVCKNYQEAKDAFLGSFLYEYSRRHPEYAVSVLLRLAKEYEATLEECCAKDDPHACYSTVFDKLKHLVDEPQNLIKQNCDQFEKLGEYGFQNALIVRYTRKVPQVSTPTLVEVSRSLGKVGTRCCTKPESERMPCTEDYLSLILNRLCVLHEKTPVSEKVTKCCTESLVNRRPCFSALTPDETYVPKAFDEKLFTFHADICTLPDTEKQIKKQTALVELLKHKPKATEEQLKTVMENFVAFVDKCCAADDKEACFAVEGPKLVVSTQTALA

B1: Ab #6: human anti-ErbB3 antibody from Fab-phage library, CDRs SEQ ID NOs:7-12; used as IgG1 and IgG2 isotypes; in phase I trials as MM-121 (antibody, V domains shown)
VH: EVQLLESGGGLVQPGGSLRLSCAASGFTFSHYVMAWVRQAPGKGLEWVSSISSSGGWTLYADSVKGRFTISRDNSKNTLYLQMNSLRAEDTAVYYCTRGLKMATIFDYWGQGTLVTVSS
VL: QSALTQPASVSGSPGQSITISCTGTSSDVGSYNVVSWYQQHPGKAPKLIIYEVSQRPSGVSNRFSGSKSGNTASLTISGLQTEDEADYYCCSYAGSSIFVIFGGGTKVTVL
B1: the “inhibition of HRG-induced spheroid growth” value in test [1] (3.4 nM HRG) is listed as “inhibits the HRG effect”; in test [2] it was “inhibits HRG induced spheroid growth”. Further, the “inhibition of spheroid growth” value in test [1] (day 1 to day 13) is “inhibits spheroid growth in AdrR cells”. The “binding in ELISA” value in test [3] was “did not show any appreciable binding”. In addition, the “inhibition of ErbB3 phosphorylation” value in test [4] and in test [5] was “inhibited ErbB3 phosphorylation” each time.

The values above are taken from patent US8691225B2, “Antibodies against the ectodomain of ErbB3 and uses thereof” (Merrimack Pharmaceuticals, Inc., priority 2007, dated 2014).
